Data taken from patent US20160075792A1 (Kyowa Kirin, published 2016).

Target: T1, human CD40 (human, UniProt P25942 21-277)
T1 construct: Endogenous CD40 on Ramos cells (ATCC CRL-1596), 'which expresses human CD40'
Assay: flow cytometry (FACS, MFI) on Ramos cells expressing human CD40, R-PE anti-human antibody detection
Method: The Ramos cell line was suspended in staining buffer (SB) of PBS containing 0.1% NaN₃, 2 mM EDTA, and 2% FCS at a density of […]. The cell suspension (100 μL/well) was dispensed into a 96-well round-bottom plate (manufactured by Becton Dickinson). The purified antibody (50 μL) was added thereto, followed by incubation at ice temperature for 30 minutes. As negative control, an anti-human IgG2 antibody against 2,4-dinitrophenol was used and the purified antibodies (50 μL) were similarly added, followed by incubation at ice temperature for 15 minutes. After the cells were washed with SB, 50 μL of 250-fold diluted R-PE fluorescence-labeled anti-human antibodies (manufactured by Southern Biotechnology) was added thereto, followed by incubation at ice temperature for 15 minutes. The cells were washed twice with SB and suspended in 300 to 500 μL of FACS buffer. And the fluorescence intensity (MFI) of individual cells was measured by FACS (FACScalibur, manufactured by Becton Dickinson).

T1 sequence (P25942 21-277 limits assumed): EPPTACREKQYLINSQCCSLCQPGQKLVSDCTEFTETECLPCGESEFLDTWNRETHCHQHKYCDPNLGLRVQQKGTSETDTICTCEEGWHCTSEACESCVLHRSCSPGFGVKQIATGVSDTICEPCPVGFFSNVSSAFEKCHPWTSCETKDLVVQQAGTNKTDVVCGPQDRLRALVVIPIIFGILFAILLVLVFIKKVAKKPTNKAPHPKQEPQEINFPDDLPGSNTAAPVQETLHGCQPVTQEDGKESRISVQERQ

binding result | Binder
binds | IgG2-AAS(341) antibody (antibody, kappa light chain; Signal peptides (1-20 of each chain, estimated by SignalP) are left out; Expressed transiently in 293 cells and purified on protein A) heavy: QVQLQQSGPGLVKPSQTLSLTCAISGDSVSSNSATWNWIRQSPSRDLEWLGRTYYRSKWYRDYVGSVKSRIIINPDTSNNQFSLQLNSVTPEDTAIYYCTRAQWLGGDYPYYYSMDVWGQGTTVTVSSASTKGPSVFPLAPCSRSTSESTAALGCLVKDYFPEPVTVSWNSGALTSGVHTFPAVLQSSGLYSLSSVVTVPSSNFGTQTYTCNVDHKPSNTKVDKTVERKCCVECPPCPAPPAAAPSVFLFPPKPKDTLMISRTPEVTCVVVDVSHEDPEVQFNWYVDGVEVHNAKTKPREEQFNSTFRVVSVLTVVHQDWLNGKEYKCKVSNKGLPASIEKTISKTKGQPREPQVYTLPPSREEMTKNQVSLTCLVKGFYPSDIAVEWESNGQPENNYKTTPPMLDSDGSFFLYSKLTVDKSRWQQGNVFSCSVMHEALHNHYTQKSLSLSPGK light: not shown
binds | IgG2-S(341) antibody (antibody) heavy: QVQLQQSGPGLVKPSQTLSLTCAISGDSVSSNSATWNWIRQSPSRDLEWLGRTYYRSKWYRDYVGSVKSRIIINPDTSNNQFSLQLNSVTPEDTAIYYCTRAQWLGGDYPYYYSMDVWGQGTTVTVSSASTKGPSVFPLAPCSRSTSESTAALGCLVKDYFPEPVTVSWNSGALTSGVHTFPAVLQSSGLYSLSSVVTVPSSNFGTQTYTCNVDHKPSNTKVDKTVERKCCVECPPCPAPPVAGPSVFLFPPKPKDTLMISRTPEVTCVVVDVSHEDPEVQFNWYVDGVEVHNAKTKPREEQFNSTFRVVSVLTVVHQDWLNGKEYKCKVSNKGLPASIEKTISKTKGQPREPQVYTLPPSREEMTKNQVSLTCLVKGFYPSDIAVEWESNGQPENNYKTTPPMLDSDGSFFLYSKLTVDKSRWQQGNVFSCSVMHEALHNHYTQKSLSLSPGK light: not shown
